Here are results for one molecule from patent US20110313230A1 (LUDWIG INSTITUTE FOR CANCER RESEARCH, published 2011).

A word on the EC50 (read off the curve): it is the concentration that produces a half-maximal response. Read a low EC50 (read off the curve) as greater potency.

Where no end group is shown, it is not given here. The star is where a group is joined. Biotin = O=C1N[C@H]2[C@H](CS[C@H]2CCCCC(=O)*)N1

The target in test [1] is T1, de2-7 EGFR unique junctional peptide (human).
T1 construct: non-biotinylated; also called Junction Peptide
T1 peptide: LEEKKGNYVVTDH-OH
Put plainly: dot-blot immune stain.
Experimental: Dot-blot immune stain experiments were also performed. Serial dilutions of peptide were spotted in 0.5 μl onto a PVDF or nitrocellulose membranes.

In test [2] the target is T2, anti-idiotype antibody LMH-12.
T2 construct: mouse IgG1 kappa
Put plainly: sandwich ELISA: plate coated with 10 µg/ml LMH-12, detection with biotinylated LMH-12 (10 µg/ml), avidin-HRP and ABTS. In general terms: An ELISA detects its analyte on a solid surface through an enzyme-linked reagent.

Test [3] concerns the target T3, biotinylated de2-7 specific peptide Biotin-LEEKKGNYVVTDH (human).
T3 construct: also called unique de2-7 EGFR peptide
T3 peptide: Biotin-LEEKKGNYVVTDH
Put plainly: ELISA on biotinylated peptide on streptavidin plates.
Experimental: Two types of ELISA were used to determine the specificity of the antibodies. […] Antibodies were added to wells in triplicate at increasing concentration in 2% HSA in phosphate-buffered saline (PBS).
Antibodies were bound and detected as in the first assay.

The target in test [4] is T4, EGFR fragment 1-294 displayed on yeast (human, UniProt P00533 25-318).
T4 construct: yeast surface display, C-terminal c-myc tag
Put plainly: flow cytometry on yeast-displayed, c-myc-tagged EGFR fragment (native), indirect immunofluorescence. On the technique in general: Flow cytometry measures light scatter and fluorescence of single cells or particles in a stream.
Experimental: (§1) Briefly, transformed colonies were grown at 30° C. in minimal media containing yeast nitrogen base, casein hydrolysate, dextrose, and phosphate buffer pH 7.4, on a shaking platform for approximately one day until an OD₆₀₀ of 5-6 was reached. […] Cultures were then stored at 4° C. until analysis. […] The cells were then washed with ice cold FACS buffer and incubated with phycoerythrin-labelled anti-mouse IgG (1:25 dilution), in a final volume of 50 μl for 1 h at 4° C., protected from light. After washing the yeast cells with ice-cold FACS buffer, fluorescence data was obtained with a Coulter Epics XL flow cytometer (Beckman-Coulter), and analyzed with WinMDI cytometry software (J. Trotter, Scripps University). For determination of linear versus conformational epitopes, yeast cells were heated at 80° C. for 30 min, then chilled on ice 20 min prior to labeling with antibodies.

For test [5], the target named is T5, Peptide C: LEEKKGNYVVTDH(K-Biot)-OH (biotin on the added C-terminal Lys (K-Biot)).
T5 construct: also called C-terminal biotinylated de2-7 peptide
T5 peptide: LEEKKGNYVVTDHK
Put plainly: BIAcore, Peptide C on streptavidin chip.
Experimental: Serial dilutions of mAbs were tested for reactivity with the peptide. Blocking experiments using non-biotinylated peptide were performed to assess specificity.

Test [6] addresses T6, EGFR fragment 1-176 displayed on yeast (human, UniProt P00533 25-200).
T6 construct: yeast surface display, C-terminal c-myc tag
Put plainly: flow cytometry on yeast-displayed, c-myc-tagged EGFR fragment (native); fragment printed '1-716' on the sheet, 1-176 in the text.
Experimental: as §1

Test [7] deals with T7, EGFR fragment 475-621 displayed on yeast (human, UniProt P00533 499-645).
T7 construct: yeast surface display, C-terminal c-myc tag
Put plainly: flow cytometry on yeast-displayed, c-myc-tagged EGFR fragment (native).
Experimental: as §1

B1: mAb806 (antibody, V domains shown)
VH: DVQLQESGPSLVKPSQSLSLTCTVTGYSITSDFAWNWIRQFPGNKLEWMGYISYSGNTRYNPSLKSRISITRDTSKNQFFLQLNSVTIEDTATYYCVTAGRGFPYWGQGTLVTVSA
VL: DILMTQSPSSMSVSLGDTVSITCHSSQDINSNIGWLQQRPGKSFKGLIYHGTNLDDEVPSRFSGSGSGADYSLTISSLESEDFADYYCVQYAQFPWTFGGGTKLEIKR
notes: murine IgG2b
Consider B1, for which the binding result is given as “no binding” in test [1]; “no binding” in test [3]; “no binding (tested: 10 µg/ml)” in test [4]; “no binding (tested: 100 nM)” in test [5]; “no binding (tested: 10 µg/ml)” in test [6]; “no binding (tested: 10 µg/ml)” in test [7]. The “EC50 (read off the curve)” value in test [2] is around 0.07 µg/mL.
